{"source": "IntAct's records for PubMed 22634751", "parents": {"B1": {"name": "Cyclin-dependent kinase inhibitor 1C (Homo sapiens), P49918 (parent)", "chain": "MSDASLRSTSTMERLVARGTFPVLVRTSACRSLFGPVDHEELSRELQARLAELNAEDQNRWDYDFQQDMPLRGPGRLQWTEVDSDSVPAFYRETVQVGRCRLLLAPRPVAVAVAVSPPLEPAAESLDGLEEAPEQLPSVPVPAPASTPPPVPVLAPAPAPAPAPVAAPVAAPVAVAVLAPAPAPAPAPAPAPAPVAAPAPAPAPAPAPAPAPAPAPDAAPQESAEQGANQGQRGQEPLADQLHSGISGRPAAGTAAASANGAAIKKLSGPLISDFFAKRKRSAPEKSSGDVPAPCPSPSAAPGVGSVEQTPRKRLR"}}, "data": [{"variants_of": "B1", "settings": "with pcna_human PCNA", "values": [{"variant": "F276V", "effect of a mutation on the interaction": "disrupting interaction"}, {"variant": "K278E", "effect of a mutation on the interaction": "disrupting interaction"}]}]}
